Experimental data taken from patent US20220211857A1, “POLYPEPTIDE DERIVATIVE AND PREPARATION METHOD THEREOF” (NINGBO KUNPENG BIOTECH CO., LTD., priority 2019, published 2022).

Test: Pharmacokinetics studies of GLP-1 derivatives in rats (single subcutaneous injection, LC-MS/MS, NCA)
Details: rat, experiment of Example 8 repeated in the same way
Description: The experiment comprised a reference substance group and a test substance group. GLP-1 and L6-GFA16-GLP-1 were injected subcutaneously with a single administration of 0.5 mg/kg, respectively. Animals in each group were collected blood at 15 min, 30 min, 1 h, 2 h, 3 h, 5 h, 7 h, 12 h, and 24 h after administration. LC-MS/MS analysis method was used to detect contents of different GLP-1 analogues.

half-lives (in words), significantly prolonged:
CC[C@H](C)[C@H](NC(=O)[C@H](Cc1ccccc1)NC(=O)[C@H](CCC(=O)O)NC(=O)[C@H](CCCCNC(=O)OCCc1cn(CCNC(=O)CCC(NC(=O)CCCCCCCCCCCCCCC(=O)O)C(=O)O)nn1)NC(=O)[C@H](C)NC(=O)[C@H](C)NC(=O)[C@H](CCC(N)=O)NC(=O)CNC(=O)[C@H](CCC(=O)O)NC(=O)[C@H](CC(C)C)NC(=O)[C@H](Cc1ccc(O)cc1)NC(=O)[C@H](CO)NC(=O)[C@H](CO)NC(=O)[C@@H](NC(=O)[C@H](CC(=O)O)NC(=O)[C@H](CO)NC(=O)[C@@H](NC(=O)[C@H](Cc1ccccc1)NC(=O)[C@@H](NC(=O)CNC(=O)[C@H](CCC(=O)O)NC(=O)[C@H](C)NC(=O)[C@@H](N)Cc1c[nH]cn1)[C@@H](C)O)[C@@H](C)O)C(C)C)C(=O)N[C@@H](C)C(=O)N[C@@H](Cc1c[nH]c2ccccc12)C(=O)N[C@@H](CC(C)C)C(=O)N[C@H](C(=O)N[C@@H](CCCCN)C(=O)NCC(=O)N[C@@H](CCCNC(=N)N)C(=O)NCC(=O)O)C(C)C (stereo partly drawn) [L0-GFA16-GLP-1]
CC[C@H](C)[C@H](NC(=O)[C@H](Cc1ccccc1)NC(=O)[C@H](CCC(=O)O)NC(=O)[C@H](CCCCNC(=O)OCCc1cn(CCOCCOCCNC(=O)CCC(NC(=O)CCCCCCCCCCCCCCC(=O)O)C(=O)O)nn1)NC(=O)[C@H](C)NC(=O)[C@H](C)NC(=O)[C@H](CCC(N)=O)NC(=O)CNC(=O)[C@H](CCC(=O)O)NC(=O)[C@H](CC(C)C)NC(=O)[C@H](Cc1ccc(O)cc1)NC(=O)[C@H](CO)NC(=O)[C@H](CO)NC(=O)[C@@H](NC(=O)[C@H](CC(=O)O)NC(=O)[C@H](CO)NC(=O)[C@@H](NC(=O)[C@H](Cc1ccccc1)NC(=O)[C@@H](NC(=O)CNC(=O)[C@H](CCC(=O)O)NC(=O)[C@H](C)NC(=O)[C@@H](N)Cc1c[nH]cn1)[C@@H](C)O)[C@@H](C)O)C(C)C)C(=O)N[C@@H](C)C(=O)N[C@@H](Cc1c[nH]c2ccccc12)C(=O)N[C@@H](CC(C)C)C(=O)N[C@H](C(=O)N[C@@H](CCCCN)C(=O)NCC(=O)N[C@@H](CCCNC(=N)N)C(=O)NCC(=O)O)C(C)C (stereo partly drawn) [L2-GFA16-GLP-1]
CC[C@H](C)[C@H](NC(=O)[C@H](Cc1ccccc1)NC(=O)[C@H](CCC(=O)O)NC(=O)[C@H](CCCCNC(=O)OCCc1cn(CCOCCOCCOCCNC(=O)CCC(NC(=O)CCCCCCCCCCCCCCC(=O)O)C(=O)O)nn1)NC(=O)[C@H](C)NC(=O)[C@H](C)NC(=O)[C@H](CCC(N)=O)NC(=O)CNC(=O)[C@H](CCC(=O)O)NC(=O)[C@H](CC(C)C)NC(=O)[C@H](Cc1ccc(O)cc1)NC(=O)[C@H](CO)NC(=O)[C@H](CO)NC(=O)[C@@H](NC(=O)[C@H](CC(=O)O)NC(=O)[C@H](CO)NC(=O)[C@@H](NC(=O)[C@H](Cc1ccccc1)NC(=O)[C@@H](NC(=O)CNC(=O)[C@H](CCC(=O)O)NC(=O)[C@H](C)NC(=O)[C@@H](N)Cc1c[nH]cn1)[C@@H](C)O)[C@@H](C)O)C(C)C)C(=O)N[C@@H](C)C(=O)N[C@@H](Cc1c[nH]c2ccccc12)C(=O)N[C@@H](CC(C)C)C(=O)N[C@H](C(=O)N[C@@H](CCCCN)C(=O)NCC(=O)N[C@@H](CCCNC(=N)N)C(=O)NCC(=O)O)C(C)C (stereo partly drawn) [L3-GFA16-GLP-1]
